For the test, the target named is BIR3 domain of XIAP (human) (UniProt P98170). The test can be described thus: SEC. (Size exclusion chromatography separates by hydrodynamic size, large species first.)

As usually defined, the stoichiometry N is the number of molecules, sites or subunits per partner or assembly. The substance “BIR3 domain of XIAP (from UniProt P98170 241-356) (domain or fragment)” displayed a stoichiometry N of 2.

These data come from paper PMC11151819.
